Test results taken from publication PMC10939272, “Structural insights into the octamerization of glycerol dehydrogenase” (PLOS ONE, 2024).

Target: the molecule itself
Assay: crystal structure; hanging-drop vapor diffusion, 20°C, pH 4.2, with ZnCl2 and NAD+, soaked in glycerol; space group I422, 2.0 Å; octamer by non-crystallographic 2-fold and crystallographic 4-fold symmetry

B1: Escherichia coli glycerol dehydrogenase (GDH), full-length (1-367) (enzyme, E. coli K12 MG1655, UniProt P0A9S5 1-367, looked up)
chain: MDRIIQSPGKYIQGADVINRLGEYLKPLAERWLVVGDKFVLGFAQSTVEKSFKDAGLVVEIAPFGGECSQNEIDRLRGIAETAQCGAILGIGGGKTLDTAKALAHFMGVPVAIAPTIASTDAPCSALSVIYTDEGEFDRYLLLPNNPNMVIVDTKIVAGAPARLLAAGIGDALATWFEARACSRSGATTMAGGKCTQAALALAELCYNTLLEEGEKAMLAAEQHVVTPALERVIEANTYLSGVGFESGGLAAAHAVHNGLTAIPDAHHYYHGEKVAFGTLTQLVLENAPVEEIETVAALSHAVGLPITLAQLDIKEDVPAKMRIVAEAACAEGETIHNMPGGATPDQVYAALLVADQYGQRFLQEWE
notes: glycerol dehydrogenase (GDH; EC 1.1.1.6) of E. coli K12 MG1655, full length, residues 1-367; Homo-octamer; Two protomers (Mol-A, Mol-B) lie in the asymmetric unit and the octamer is formed by crystallographic 4-fold symmetry; Crystallised with Zn2+ and NAD+ and soaked in glycerol; also called E. coli GDH; GDH^NAD∙Gly; source: E. coli BL21 (DE3), purified (Ni-IDA, size-exclusion chromatography)
stoichiometry N: 8
